# Measurements taken from the DeepSol protein solubility set.
# Assay: soluble on expression in E. coli; label from the status in PepcDB or PDB records
row,Sequence,soluble on expression in E. coli
1,GLNHMTARYLREEHHMFRAAFRKFLEKEAYPHYNDWEKRGIIPRSFWAKMGENGFLCPWVDEKYGGLNADFAYSVVINEELEKVGSSLVGIGLHNDIVTPYIASYGTEEQKQKWLPKCVTGELITAIAMTEPGAGSDLANISTTAVKDGDYYIVNGQKTFITNGIHADLIVVACKTDPQAKPPHRGISLLVVERDTPGFTRGRKLEKVGLHAQDTAELFFQDAKVPAYNLLGEEGKGFYYLMEKLQQERLVVAIAAQTAAEVMFSLTKQYVKQRTAFGKRVSEFQTVQFRLAEMATEIALGRTFVDRVIEEHMAGKQIVTEVSMAKWWITEMAKRVAAEAMQLHGGYGYMEEYEIARRYRDIPVSAIYAGTNEMMKTIIARQLDL,soluble
2,SKCIPYSVLLKDLEMRNLRELEDLIIEAVYTDIIQGKLDQRNQLLEVDFCIGRDIRKKDINNIVKTLHEWCDGCEAVLLGIEQQVLRANQYKENHNRTQQQVEAEVTNIKKTLKATASSSAQEMEQQLAERECPPHAEQRQPTKKMSKVKGLVSSRH,soluble
3,MAHHHHHHMQKIQNAVRRRSRFFKWDVKWYSSKVKVEKKAGERHNDRHDSHDSHDSHKDIPQDSRPDTRVGQERKYNLWRWGCSGEGIFSSVKVGEKNKMPEKVPNFENAKIEKLSAGCDHAAFIVDGRIFTYGLNDKGQLGRSIEEENDQNKSYTLTPREVKTEGNVKFKDVCCGYKHTVAVDVNNNLYSWGWGGNFFKGANGLGHGNKQNLSTPKKVESFKSDDSEFVNICCGDQHSLVLTKNGKVYGCGRGEFGRLGKGNHGDQLFFEEIDFFISNNITVKGISCGHSFSAALSTDGEVYVWGRNDYGQLGIENSIGDLYSHEVYPNKVKYFDMENIKIKFIACGDNHMIACSENNVIFFWGSRAWLEPKAITLSPLYQNSVIKKNIDKIEAGGNTYYYSMLLSDNKLYSWGKYNSSCLALGDKKNHNEPTLVDSKLFNDEIVCDISCGRGRVLAKTLAAD,not soluble
4,GPGSAEKKQKQHFYLTQEMPPRRDPERQRAKVAAATMAPSEHKKASLPPAKLRLNLGPFLPQKKKNRPPKTTEIDWGSEQTPRLQCSWHPQRRNGIVSFPVMMSYPVSCHCAAWGCHITRAYPTMTRQGAHRLASPKVGRPRRSTRKPDQK,soluble
5,MKVIVVGCTHAGTFAVKQTIADHPDADVTAYEMNDNISFLSCGIALYLGKEIKNNDPRGLFYSSPEELSNLGANVQMRHQVTNVDPETKTIKVKDLITNEEKTEAYDKLIMTTGSKPTVPPIPGIDSSRVYLCKNYNDAKKLFEEAPKAKTITIIGSGYIGAELAEAYSNQNYNVNLIDGHERVLYKYFDKEFTDILAKDYEAHGVNLVLGSKVAAFEEVDDEIITKTLDGKEIKSDIAILCIGFRPNTELLKGKVAMLDNGAIITDEYMHSSNRDIFAAGDSAAVHYNPTNSNAYIPLATNAVRQGRLVGLNLTEDKVKDMGTQSSSGLKLYGRTYVSTGINTALAKANNLKVSEVIIADNYRPEFMLSTDEVLMSLVYDPKTRVILGGALSSMHDVSQSANVLSVCIQNKNTIDDLAMVDMLFQPQFDRPFNYLNILGQAAQAQADKAHK,soluble
6,MGSDKIHHHHHHMTRKQFETLDLDNLEQNLQQAAELIAGRIRAIACDPVKQNISFEELAAIIPCDLPDEGHGPEAVIGEVARHIEPYSTRIGHPRFLAWITTSPGPAGTIGDMLCTGLNQAPLSFKGGPAATVLEEIVLGWFAGMFGMPEGWGGTIVSGGTMANLMGLTVARRVHAPQVHARGMQGLERPLVLYVSDQGHMSVTRSAVLLGIGEDNVRAVPSDSACRMIPHELEKAVQQDRRAGRLPFCVVAQAGSVTTGAVDPLPDIAAICRRENMWMHVDAAYGGAVMLADELRPLLAGIELADSVCVDPHKWFFVPLECGITLFRSREQQLETFRAKAAYLGAENPHDLKNTTFILSRANRALKVWFAFRSYGRLRIARIIRRNMELARQLYRLMCDHPEWEPLAPAPLSIVCGRYTPSAAVRGGWTEQQIDDLQLQMIEELERSGTALLTPAAVNGRAGVRVCIANHRTTPEDITLIFNTLTAIGTRIARPDEHETAGE,not soluble
7,MAHHHHHHMALTLSPVEAALATCVALRYFYAHALHLSAATRVAHSVGPAPHDLSDRFTANLPFEDYLQWGLESIYSDASSAEAHLCLEQLSSNLRDAIMTHANNMEFRFLDEAPSLFDTVLLTSLYLVRSRVLRMPLLSSTSNKPDSNCSVFGPGLDALNHCSTSPAAVVVVSAARRSVVVRARRRINRGEEITLDYRLTGSGRGVSRGHPSHNGSLLRGDVICMNDDWAARYLMN,not soluble
8,MSLDMNKPEGFDCPGCAWPDPKHSASFDICENGAKAIAWEVTDKQVNASFFAENTVQSLLTWGDHELEAAGRLTQPLKYDAVSDCYKPLSWQQAFDEIGARLQSYSDPNQVEFYTSGRTSNEAAFLYQLFAREYGSNNFPDCSNMCHEPTSVGLAASIGVGKGTVLLEDFEKCDLVICIGHNPGTNHPRMLTSLRALVKRGAKMIAINPLQERGLERFTAPQNPFEMLTNSETQLASAYYNVRIGGDMALLKGMMRLLIERDDAASAAGRPSLLDDEFIQTHTVGFDELRRDVLNSEWKDIERISGLSQTQIAELADAYAAAERTIICYGMGITQHEHGTQNVQQLVNLLLMKGNIGKPGAGICPLRGHSNVQGDRTVGITEKPSAEFLARLGERYGFTPPHAPGHAAIASMQAICTGQARALICMGGNFALAMPDREASAVPLTQLDLAVHVATKLNRSHLLTARHSYILPVLGRSEIDMQKNGAQAVTVEDSMSMIHASRGVLKPAGVMLKSECAVVAGIAQAALPQSVVAWEYLVEDYDRIRNDIEAVLPEFADYNQRIRHPGGFHLINAAAERRWMTPSGKANFITSKGLLEDPSSAFNSKLVMATVRSHDQYNTTIYGMDDRYRGVFGQRDVVFMSAKQAKICRVKNGERVNLIALTPDGKRSSRRMDRLKVVIYPMADRSLVTYFPESNHMLTLDNHDPLSGIPGYKSIPVELEPSNEGHHHHHH,soluble
9,MGSDKIHHHHHHYLPDDEPKKLIVNAMMQTENNDNRIYLHYTGWTATTPVTDGIIHLYINGKLSETITAEDDYYPVKSIFRTGDKVKIEASSENGKYKAKAETRISAPLQIINVDTTYISLRDYNSWVGGKPVYDNYLRLNIQLKQPDIEAENTYYRLEIKQIFYSHKWHDGRDTLSIDTTYNYNYIYDTALTDGKPGHAIDEGFELIQKWNNYFGLFKSCYFKNREYNMTIDLKEDINYIHIDSQKAERYISIRFYSISESEHRYLYAMSSALDFDAENFIYAVPLIPNNIKGGIGIFSIANQVKYKLKEENCQDRY,not soluble
10,QYWDLRKTQQTGQCQSREDYYSAFRNEIQQSIRQSIRTDAEIMAHYSGGLDSSSIASIAALQLAKENKTLMAYTAIPKYLSGDSHRKGCKYHELDRVQSACRYYDNIETIVYQSSEDLSIFDKLQVFYPYLDQPFKAVFNMEWILAGLEMAAAKNCRILLNGEQGNGSISWKGVTLGNYLNQRVKFTRHLLKYHMKLGKQFIKSGSLNLKKNRTDLNEMKKNFLEPHYSLLRGKNRLETRSYMRSIYLWFGVEVIDPTSNLDLVQFCYDLPEWVYHGGNKYFEIRRLPKLKRRLLVRDALEGLVPPEIRHNPYRGEQAADWYYQFNKYGHAWGRLLADIAEKHPLIWEIYPKKYLLDLFANHPISPQSRNFQDVNMHLVPALSTAFFINYLNDLY,not soluble
11,MGSDKIHHHHHHMEKEIAIITLHGMGDYKPNYFEALKNQLEKKLGTKWDKIAFEPVQYQPILQQNQIKIWQRMNSYPLDGSILRRFLLFGFSDAGSLEYSARSKVSVQYIEVQKEIMQALDKLYVELGNNDKPVIIIAQSLGCQVISNYIWDAKHDSGIFNGLEPDASAQLKSFRRLNSCVHLLTTGCNIPMFVAGLNPIEAIQKPNNEFTWFNYYDRDDVLGWPLSPLSDSYGALVKDHEINAGGIFSSWNPWSHGQYWTDKDVLNSLIDRIRRYI,not soluble
12,MFPIASRRILLNASVLPLRLCNRNFTTTRISYNVIQDLYLRELKDTKLAPSTLQDAEGNVKPWNPPQKPNLPELELQGPEALKAYTEQNVETAHVAKESEEGESEPIEEDWLVLDDAEETKESH,not soluble
13,MGSDKIHHHHHHMSWEISGTYVGSCTCQLICPCPVDGLPTGPDGECRGLNVFHIASGKMDDTDLSGVDFAFANWFPSHLTAGGWKVGAVVDDAASDAQVRALGSILRGEAGGPFGDLAALYGEWLGLERAGVKFSGGDTPAGSVADRVVITFEPLPGPDGGVTTVKNAMYGFAPEFQIGKGTGHPDLFGLAFDGVYGETSDFSFASEMAEGAPKGRG,not soluble
14,MSLRLADFGFTDGINEIIAITENEDGSWNAAPIGIIVEDSSSDTAKAKLYRNRTRANLERSGVLFANVTDDALVFAVSSFGNLNDDWYASPNPPIIKGAMAWCRFEAEMRSGVAHLKLTDGEIIEKRVRAINRGLSAVIEALVHATRYVAIKSDERRKELLERIHYYREIVQKCGSEREKRAFEIIMEKIGEGHHHHHH,soluble
15,MIQIEQIRTGVIQENCYLVYNEEALLIIDPGAEGAKLIQEITRLGKKPAAILLTHTHYDHIGAVEELRHHYQIPVYVSPLEQAWLSNPILNLSGLGRHDDIANIIVQPAEHEFKLTDYEIGGMKFSVVPTPGHSIGSVSFVFDDFVVVGDALFKGSIGRTDLHTGDMQQLLHSITTYLFTLPEEFPVYPGHGDATTIQHEKATNPFFN,not soluble
16,MGSDKIHHHHHHMTDPRTTAFNGRVAHASLKGEIEAERYSEGRWMMVQQPIANILDKPRGARTSQLVFGERFLVLDTEDGFSFGQAERDGYVGYILSGALTGAEPATHWVISPATHLYPKAELKVPPDVCLYFGSQVKVTGEKDDFKRIHTGHFMPSQHLMPIKARFRDSVGIADLFLGTPYLWGGTSRWGIDCSGLVQACLLACGVECPRDTDQQEAALGEEIPSDEALKRGDLIFWKGHVGMMASDRMLLHANAHHMSTAYEPLKDAAARIEAKEYGPITSRKRIAMG,not soluble
17,PLGSMPFHAEPLKPSDEIDMDLGHSVAAQKFKEIREVLEGNRYWARKVTSEEPEFMAEQVKGQAPNFLWIGCADSRVPEVTIMARKPGDVFVQRNVANQFKPEDDSSQALLNYAIMNVGVTHVMVVGHTGCGGCIAAFDQPLPTEENPGGTPLVRYLEPIIRLKHSLPEGSDVNDLIKENVKMAVKNVVNSPTIQGAWEQARKGEFREVFVHGWLYDLSTGNIVDLNVTQGPHPFVDDRVPRA,soluble
18,MGSDKIHHHHHHMNAVLQKKGGVGIIILARLDSTRLPGKALRTAAGKEMLGYVVERARMVRGVSEIVLATTDRTVDDRLEEYAAACDLAVFRGSDVDVAGRVAACVRWRGWDAFVRINGDSPFIDPQTISSAVNLLYGLGGVSAAGLSDSHAQRGNMHAECASLPLVACGSVTLAGYAGHDATELPDMVTNVLRRTFPKGQSVEVCRASAFLAGYAAMHLPEHLEHVTKYFYDTRSIRIMNMESGDPSLGEIQLAVDTEEDFALFERMLARMDRPHTAYAAHEIIELYRECLHG,not soluble
19,MVYPIRLYGDPVLRRKARPVEDFSGIKRLAEDMLETMFEAKGVGLAAPQIGLSQRLFVAVEYADEPEGEEERPLRELVRRVYVVANPVITYREGLVEGTEGCLSLPGLYSEEVPRAERIRVEYQDEEGRGRVLELEGYMARVFQHEIDHLDGILFFERLPKPKREAFLEANRAELVRFQKEARALLKELSQG,soluble
